{
  "source": "paper PMC7835958",
  "about": "(2021)",
  "target": "T1, LEDGF/p75 IBD (Homo sapiens, UniProt O75475)",
  "T1 chain": "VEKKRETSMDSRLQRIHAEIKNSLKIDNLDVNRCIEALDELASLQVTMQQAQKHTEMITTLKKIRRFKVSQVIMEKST",
  "assay": "NMR",
  "data": [
    {"binder": "GTNLRRFRAVFGESGGGGGSGEDEQFLGFGSDEEVRVR", "note": "[MLL 123-160]", "values": [
      {"measurement": "Kd", "value": 64, "unit": "µM"}
    ]}
  ]
}
